In one data set the test system is cocaine toxicity. The settings on record: infusion of cocaine at 1 mg/kg/min, catecholamine levels standardized; cited from earlier work.
The nature of data set [1]: Isotope tracer cocaine hydrolysis assay, Lineweaver-Burk plot. The settings on record: 2 hour incubation at 37° C., x intercept of double-reciprocal plot. The format is biochemical. An excerpt:
(§1) At the conclusion of the isotope tracer assay, an aliquot of the reaction mix is acidified in order to take advantage of the solubility difference between the product and the substrate at pH 3.0.

For data set [2] the following is noted: Gatley 1991; Xie et al. 1999; read-out: Km for cocaine hydrolysis, previously published values; cited from earlier work.
A short description of data set [3]: Spectrophotometric (240 nm) cocaine binding and hydrolysis assay with purified butyrylcholinesterase variants. The format is biochemical. As for the experimental part:
[…]. Pharmacol. 41:1249–1254 (1991). Km values were determined in 0.1M potassium phosphate pH 7.0 at 30° C. for (−)-cocaine. Vmax values and Km values were calculated using Sigma Plot for Macintosh (Jandel Scientific, San Rafael, Calif.).
Once Vmax values and Km values were calculated, the number of active sites in each butyrylcholinesterase preparation was determined. The titration of active sites was performed with chlorpyrifos oxon (MET-674B, Chem Service, West Chester, Pa.), an inhibitor of butyrylcholinesterase. One molecule of chlorpyrifos oxon binds and inhibits one molecule of butyrylcholinesterase, which allows for calculation of the number of active sites. Based on the number of active sites, the kcat value for each variant was calculated (Table 3). […].

For data set [4] the following is noted: Xie et al. 1999; cited from earlier work.
The nature of data set [5]: Microtiter [3H]-cocaine isotope tracer hydrolysis assay with immobilized butyrylcholinesterase variants. The format is biochemical.
Source text: as §1
The supernatants isolated from each of the butyrylcholinesterase variant library clones contains variable butyrylcholinesterase enzyme concentrations.
At least three approaches are used to either increase the assay sensitivity or the assay signal.

For data set [6] the following is noted: stored at 4° C., after 18 months (Lynch et al.); cited from earlier work.

The Km is the concentration of substrate that gives half-maximal velocity.

“And” between values parts separate entries of the source, which are not always exact repeats. Identical values can stand only once. Like-named read-outs stand apart in the source and are kept apart here.

Consider `COC(=O)[C@H]1[C@@H](OC(=O)c2ccccc2)C[C@@H]2CC[C@H]1N2C` [cocaine], for which the LD90 in the data set with cocaine toxicity is reported as 16 mg/kg.
On to horse butyrylcholinesterase, for which the Km in data set [1] is approximately 37.6 µM; in data set [2], 38 µM and 45 µM.

B1: A328Y (protein, UniProt P06276 29-602, looked up, variant A328Y)
Cholinesterase: EDDIIIATKNGKVRGMNLTVFGGTVTAFLGIPYAQPPLGRLRFKKPQSLTKWSDIWNATKYANSCCQNIDQSFPGFHGSEMWNPNTDLSEDCLYLNVWIPAPKPKNATVLIWIYGGGFQTGTSSLHVYDGKFLARVERVIVVSMNYRVGALGFLALPGNPEAPGNMGLFDQQLALQWVQKNIAAFGGNPKSVTLFGESAGAASVSLHLLSPGSHSLFTRAILQSGSFNAPWAVTSLYEARNRTLNLAKLTGCSRENETEIIKCLRNKDPQEILLNEAFVVPYGTPLSVNFGPTVDGDFLTDMPDILLELGQFKKTQILVGVNKDEGTYFLVYGAPGFSKDNNSIITRKEFQEGLKIFFPGVSEFGKESILFHYTDWVDDQRPENYREALGDVVGDYNFICPALEFTKKFSEWGNNAFFYYFEHRSSKLPWPEWMGVMHGYEIEFVFGLPLERRDNYTKAEEILSRSIVKRWANFAKYGNPNETQNNSTSWPVFKSTEQKYLTLNTESTRIMTKLRAQQCRFWTSFFPKVLEMTGNIDEAEWEWKAGFHRWNNYMMDWKNQFNDYTSKKESCVGL
On to B1, for which, in data set [3] ((−)-cocaine, 0.1M potassium phosphate pH 7.0 at 30° C.), the Km is 9 µM. For the same molecule, the “kcat (hydrolysis rate)” value in data set [3] ((−)-cocaine, active sites titrated with chlorpyrifos oxon) was 0.17 s⁻¹. Moreover, the “Hydrolyzes cocaine faster than wild-type” value in data set [3] (compared to wild-type butyrylcholinesterase) is given as “Hydrolyzes cocaine 4 times faster than wild-type”. Also, the “increase in cocaine hydrolysis activity compared to human butyrylcholinesterase” value in data set [4] is recorded as “four”.

B2: P285S (protein)
chain: EDDIIIATKNGKVRGMNLTVFGGTVTAFLGIPYAQPPLGRLRFKKPQSLTKWSDIWNATKYANSCCQNIDQSFPGFHGSEMWNPNTDLSEDCLYLNVWIPAPKPKNATVLIWIYGGGFQTGTSSLHVYDGKFLARVERVIVVSMNYRVGALGFLALPGNPEAPGNMGLFDQQLALQWVQKNIAAFGGNPKSVTLFGESAGAASVSLHLLSPGSHSLFTRAILQSGSFNAPWAVTSLYEARNRTLNLAKLTGCSRENETEIIKCLRNKDPQEILLNEAFVVPYGTSLSVNFGPTVDGDFLTDMPDILLELGQFKKTQILVGVNKDEGTAFLVYGAPGFSKDNNSIITRKEFQEGLKIFFPGVSEFGKESILFHYTDWVDDQRPENYREALGDVVGDYNFICPALEFTKKFSEWGNNAFFYYFEHRSSKLPWPEWMGVMHGYEIEFVFGLPLERRDNYTKAEEILSRSIVKRWANFAKYGNPNETQNNSTSWPVFKSTEQKYLTLNTESTRIMTKLRAQQCRFWTSFFPKVLEMTGNIDEAEWEWKAGFHRWNNYMMDWKNQFNDYTSKKESCVGL
modifications: Human Butyrylcholinesterase variant
Take B2: the “increase in cocaine hydrolysis activity compared to human butyrylcholinesterase” value in data set [5] (region 5 library variants, Examples II through VI) is “approximately three”. Moreover, the “enhanced cocaine hydrolase activity (library screen)” value in data set [5] (region five library, hydrolysis of [3H]-cocaine) is given as “enhanced cocaine hydrolase activity”.

B3: butyrylcholinesterase (protein, listed as Homo sapiens)
chain: EDDIIIATKNGKVRGMNLTVFGGTVTAFLGIPYAQPPLGRLRFKKPQSLTKWSDIWNATKYANSCCQNIDQSFPGFHGSEMWNPNTDLSEDCLYLNVWIPAPKPKNATVLIWIYGGGFQTGTSSLHVYDGKFLARVERVIVVSMNYRVGALGFLALPGNPEAPGNMGLFDQQLALQWVQKNIAAFGGNPKSVTLFGESAGAASVSLHLLSPGSHSLFTRAILQSGSFNAPWAVTSLYEARNRTLNLAKLTGCSRENETEIIKCLRNKDPQEILLNEAFVVPYGTPLSVNFGPTVDGDFLTDMPDILLELGQFKKTQILVGVNKDEGTAFLVYGAPGFSKDNNSIITRKEFQEGLKIFFPGVSEFGKESILFHYTDWVDDQRPENYREALGDVVGDYNFICPALEFTKKFSEWGNNAFFYYFEHRSSKLPWPEWMGVMHGYEIEFVFGLPLERRDNYTKAEEILSRSIVKRWANFAKYGNPNETQNNSTSWPVFKSTEQKYLTLNTESTRIMTKLRAQQCRFWTSFFPKVLEMTGNIDEAEWEWKAGFHRWNNYMMDWKNQFNDYTSKKESCVGL
On to B3, for which the original activity retained entry in data set [6] is reported as “over 90%”.

The record behind these values is patent US7070973B2, “Butyrylcholinesterase variants and methods of use” (priority 2000, dated 2006).
